Experiment [1] concerns the target mouse PVRL2 splice variant 2 (sv2) over-expressed on HEK293 cells (RC-335) (mouse) (UniProt P32507). The experiment is described as follows: FACS dose response on HEK293 OX mouse PVRL2.
The target of experiment [2] is mouse PVRL2 endogenously expressed on B16-F10 cells (mouse) (UniProt P32507). The experiment is described as follows: FACS dose response on B16-F10 cells.
The target of experiment [3] is mouse PVRL2 splice variant 1 (sv1) over-expressed on HEK293 cells (RC-334) (mouse) (UniProt P32507). The experiment can be described thus: FACS on HEK293 OX mouse PVRL2 sv1.
mouse PVRL2 splice variant 1 (sv1) over-expressed on HEK293 cells (RC-334) (mouse), sequence (P32507 32-530, change not shown): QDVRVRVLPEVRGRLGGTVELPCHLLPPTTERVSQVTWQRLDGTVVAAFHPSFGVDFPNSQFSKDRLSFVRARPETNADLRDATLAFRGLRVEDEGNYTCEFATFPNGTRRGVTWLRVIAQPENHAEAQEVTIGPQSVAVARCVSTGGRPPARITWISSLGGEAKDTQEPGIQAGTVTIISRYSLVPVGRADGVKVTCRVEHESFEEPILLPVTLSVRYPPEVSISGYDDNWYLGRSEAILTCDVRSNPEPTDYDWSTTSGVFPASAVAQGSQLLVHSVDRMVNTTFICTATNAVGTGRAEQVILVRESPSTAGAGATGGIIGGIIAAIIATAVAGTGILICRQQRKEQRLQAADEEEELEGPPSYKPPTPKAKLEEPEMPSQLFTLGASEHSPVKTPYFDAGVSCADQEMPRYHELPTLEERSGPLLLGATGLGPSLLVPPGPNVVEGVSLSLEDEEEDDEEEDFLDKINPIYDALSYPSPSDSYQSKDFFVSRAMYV
Experiment [4] has as its target mouse PVRIG over-expressed on HEK293 cells (RC-287; PVRIG-FLAG RC-286) (mouse). The experiment is described as follows: FACS on cells OX mouse PVRIG, preliminary data.
For experiment [5] the target is unchanged. The experiment is described as follows: FACS on cells OX mouse PVRIG.
The target is the same in experiment [6]. The experiment can be described thus: FACS on HEK293 OX mouse PVRIG, 60 ug/ml, other of two sources.
Experiment [7] has the same target. The experiment is described as follows: FACS on HEK293 OX mouse PVRIG, 60 ug/ml, one of two sources.

mouse PVRL2-his (R&D, 3869-N2; Sino Biological, 50318-M08H), sequence (P32507 32-351 limits assumed, stated change not applied): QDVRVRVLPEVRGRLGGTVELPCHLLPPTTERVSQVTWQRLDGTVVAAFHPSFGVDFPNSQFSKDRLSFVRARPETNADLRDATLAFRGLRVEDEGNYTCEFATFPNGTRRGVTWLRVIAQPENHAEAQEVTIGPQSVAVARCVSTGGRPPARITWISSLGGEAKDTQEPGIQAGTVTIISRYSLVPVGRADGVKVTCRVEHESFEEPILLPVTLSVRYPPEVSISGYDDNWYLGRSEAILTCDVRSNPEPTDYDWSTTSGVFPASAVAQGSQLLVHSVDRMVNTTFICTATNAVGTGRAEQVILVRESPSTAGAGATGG
custom Fc-fused mouse PVRL2 (GenScript), sequence (P32507 32-351 limits assumed): as the sequence (P32507 32-351 limits assumed, stated change not applied) above
mouse PVRL2 endogenously expressed on B16-F10 cells (mouse), sequence (P32507 32-530): as the sequence (P32507 32-530, change not shown) above
mouse PVRL2 splice variant 2 (sv2) over-expressed on HEK293 cells (RC-335) (mouse), sequence (P32507 32-530, change not shown): as above

As for “PVRIG mECD-mIg fusion protein (ECD of mouse PVRIG fused to the Fc of mouse IgG2a) (Fc fusion)”, the concentration at saturation of binding in experiment [1] and in experiment [2] was 12.5 µg/mL each time. In addition, the fold binding vs empty vector cells in experiment [3] is 6 to 11 fold.
In experiment [4], “custom Fc-fused mouse PVRL2 (GenScript) (from UniProt P32507 32-351) (Fc fusion)” yielded a fold binding of 5 fold.
In experiment [5], “mouse PVRL2-his (R&D, 3869-N2; Sino Biological, 50318-M08H) (from UniProt P32507 32-351) (ligand)” displayed a fold binding of 2 to 3 fold. For the same substance, the fold binding vs empty vector cells in experiment [6] was 3 to 4 fold; in experiment [7] it was 2 fold.

For the origin of these results see patent publication US20200385445A1.
